Tests used:
[1] = molecular target: Aga2p-N9V fusion surface-displayed on yeast, unmodified (G4S)3 linker (construct pCT-N9V, as in strain EBYN9V)
[2] = molecular target: New York Esophageal 1 antigen (NY-ESO-1), P78358
New York Esophageal 1 antigen (NY-ESO-1), P78358, sequence (P78358 whole entry): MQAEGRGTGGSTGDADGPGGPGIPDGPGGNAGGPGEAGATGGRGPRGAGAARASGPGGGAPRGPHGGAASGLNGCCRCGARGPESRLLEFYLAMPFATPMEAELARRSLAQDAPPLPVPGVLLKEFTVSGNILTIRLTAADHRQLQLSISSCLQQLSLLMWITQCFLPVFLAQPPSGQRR

B1: recombinant human Cathepsin S (protein)
chain: LPDSVDWREKGCVTEVKYQGSCGACWAFSAVGALEAQLKLKTGKLVSLSAQNLVDCSTEKYGNKGCNGGFMTTAFQYIIDNKGIDSDASYPYKAMDQKCQYDSKYRAATCSKYTELPYGREDVLKEAVANKGPVSVGVDARHPSFFLYRSGVYYEPSCTQNVNHGVLVVGYGDLNGKEYWLVKNSWGHNFGEEGYIRMARNKGNHCGIASFPSYPEI
In the case of B1, the CatS cleavage rank order [1] is reported as 4 rank and the “cleavage by Cathepsin S” value [2] is reported as “the N-terminus of NY-ESO-1 (MQ|AE . . . ) ... are cleaved rapidly by Cathepsin S (at the positions indicated by the vertical bars)”.

— US20080171059
